The target in test [1] is p300 BRP module (bromodomain-RING-PHD), residues 1048-1282 (UniProt Q09472). As to the kind of experiment: ITC.
In test [2] the target is pIRF3 (IRF3 1-427 phosphorylated in vitro by TBK1) (UniProt Q14653). As to the kind of experiment: SEC.
The target of test [3] is pSTAT1ΔN (136-748), Tyr701-phosphorylated (UniProt P42224). As to the kind of experiment: SEC.
The target in test [4] is pSTAT1ΔNC (136-713), Tyr701-phosphorylated (UniProt P42224). As to the kind of experiment: SEC.

This is an account of results in publication PMC6914384.

Sequence of p300 BRP module (bromodomain-RING-PHD), residues 1048-1282 (Q09472 1048-1282): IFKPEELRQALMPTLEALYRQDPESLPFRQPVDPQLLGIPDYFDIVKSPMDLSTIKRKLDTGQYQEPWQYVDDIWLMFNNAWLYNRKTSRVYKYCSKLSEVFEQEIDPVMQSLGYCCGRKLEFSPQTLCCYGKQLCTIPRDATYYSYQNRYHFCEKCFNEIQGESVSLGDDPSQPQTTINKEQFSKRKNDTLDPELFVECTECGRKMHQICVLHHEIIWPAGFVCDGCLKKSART

As to H4 K8acK12ac (4-24) peptide, in test [1], the Kd was found to be 90 µM and the stoichiometry N was found to be 1.01.
“pIRF3 (IRF3 1-427 phosphorylated in vitro by TBK1) (from UniProt Q14653 1-427) (natural protein)”: the stoichiometry N in test [2] came out at 2.
Turning to “pSTAT1ΔN (136-748), Tyr701-phosphorylated (from UniProt P42224 136-748) (domain or fragment)”, in test [3], the stoichiometry N came out at 2.
With “pSTAT1ΔNC (136-713), Tyr701-phosphorylated (from UniProt P42224 136-713) (domain or fragment)”, the stoichiometry N in test [4] was determined as 2.
